According to patent US20230406921A1 (MABWELL SHANGHAI BIOSCIENCE, published 2023):

biological target: T1, recombinant antigen of the extracellular region of CD47 (Sino Biological, Cat: 12283-H08H) (human, UniProt Q08722 19-139); assay: Fortebio BLI, antibody on AHC sensor, CD47 extracellular region 100 nM;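 further: antibody held on the sensor through anti-human Fc capture, CD47 antigen in solution, association and dissociation phases each lasting 300 s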
T1 construct: extracellular domain; also called recombinant CD47 extracellular region; CD47 recombinant protein
T1 sequence (Q08722 19-139 limits assumed): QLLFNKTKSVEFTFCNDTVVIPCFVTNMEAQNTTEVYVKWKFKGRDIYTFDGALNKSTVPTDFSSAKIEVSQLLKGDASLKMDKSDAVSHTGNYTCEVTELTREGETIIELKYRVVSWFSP
Protocol: The affinity between the obtained mutant antibody and the CD47 recombinant protein was determined by Fortebio. The antibody was immobilized on the surface of a sensor with the anti-human Fc capture antibody (AHC Sensor), and reacted with the recombinant antigen of the extracellular region of CD47 (with a working concentration of 100 nM) in the liquid phase. The duration for binding and dissociation was both 300 seconds. The kinetic parameters were determined.

Binder	Kd [nM]	koff [s⁻¹]	kon [M⁻¹ s⁻¹]
hz140-Hm7/hz182-L (antibody, V domains shown) VH: QVQLVQSGAEVKKPGASVKVSCKASGYKFTNYVMHWVRQAPGQRLEWMGYINPYNDGIKYNEKFQGRVTITRDTSASTAYMELSSLRSEDTAVYYCAREGDFYANYGRLGFAYWGQGTLVTVSS VL: DIQMTQSPSSLSASVGDRVTITCRASQDISNYLNWYQQKPGKAPKLLLYYTSRLHSGVPSRFSGSGSGTDYTLTISSLQPEDFATYFCQQGAGRPYTFGGGTKVEIK	61.8	0.00767	124000
hz140-Hm3/hz182-L (antibody, V domains shown) VH: QVQLVQSGAEVKKPGASVKVSCKASGYKFTNYAMHWVRQAPGQRLEWMGYINPYNDGIKYNEKFTGRVTITRDTSASTAYMELSSLRSEDTAVYYCAREGDFYANYGRLGFAYWGQGTLVTVSS VL: DIQMTQSPSSLSASVGDRVTITCRASQDISNYLNWYQQKPGKAPKLLLYYTSRLHSGVPSRFSGSGSGTDYTLTISSLQPEDFATYFCQQGAGRPYTFGGGTKVEIK	10.3	0.00308	299000
hz140-Hm12/hz182-L (antibody, V domains shown) VH: QVQLVQSGAEVKKPGASVKVSCKASGYTFTNYVMSWVRQAPGQRLEWMGYINPYNDAIKYNEKFTGRVTITRDTSASTAYMELSSLRSEDTAVYYCAREGDFYANYGRLGFAYWGQGTLVTVSS VL: DIQMTQSPSSLSASVGDRVTITCRASQDISNYLNWYQQKPGKAPKLLLYYTSRLHSGVPSRFSGSGSGTDYTLTISSLQPEDFATYFCQQGAGRPYTFGGGTKVEIK	14.7	0.00328	224000
hz140-Hm6/hz182-L (antibody, V domains shown) VH: QVQLVQSGAEVKKPGASVKVSCKASGYKFTNYVMHWVRQAPGQRLEWMGYINPGNDGIKYNEKFTGRVTITRDTSASTAYMELSSLRSEDTAVYYCAREGDFYANYGRLGFAYWGQGTLVTVSS VL: DIQMTQSPSSLSASVGDRVTITCRASQDISNYLNWYQQKPGKAPKLLLYYTSRLHSGVPSRFSGSGSGTDYTLTISSLQPEDFATYFCQQGAGRPYTFGGGTKVEIK	8.55	0.00316	370000
hz140-Hm8/hz182-L (antibody, V domains shown) VH: QVQLVQSGAEVKKPGASVKVSCKASGYKFTNYVMHWVRQAPGQRLEWMGYINPYNDGIKYNEKFTGRVTITRDTSASTAYMELSSLRSEDTAVYYCAREGDFYANYGRLGFDYWGQGTLVTVSS VL: DIQMTQSPSSLSASVGDRVTITCRASQDISNYLNWYQQKPGKAPKLLLYYTSRLHSGVPSRFSGSGSGTDYTLTISSLQPEDFATYFCQQGAGRPYTFGGGTKVEIK	42.5	0.00907	213000
hz140-Hm5/hz182-L (antibody, V domains shown) VH: QVQLVQSGAEVKKPGASVKVSCKASGYKFTNYVMHWVRQAPGQRLEWMGWINPYNDGIKYNEKFTGRVTITRDTSASTAYMELSSLRSEDTAVYYCAREGDFYANYGRLGFAYWGQGTLVTVSS VL: DIQMTQSPSSLSASVGDRVTITCRASQDISNYLNWYQQKPGKAPKLLLYYTSRLHSGVPSRFSGSGSGTDYTLTISSLQPEDFATYFCQQGAGRPYTFGGGTKVEIK	6.82	0.00103	151000
hz140-Hm11/hz182-L (antibody, V domains shown) VH: QVQLVQSGAEVKKPGASVKVSCKASGYKFTNYVMSWVRQAPGQRLEWMGYINPYNDAIKYNEKFTGRVTITRDTSASTAYMELSSLRSEDTAVYYCAREGDFYANYGRLGFAYWGQGTLVTVSS VL: DIQMTQSPSSLSASVGDRVTITCRASQDISNYLNWYQQKPGKAPKLLLYYTSRLHSGVPSRFSGSGSGTDYTLTISSLQPEDFATYFCQQGAGRPYTFGGGTKVEIK	6.53	0.0017	260000

Continued, values first:

Kd [nM]	koff [s⁻¹]	kon [M⁻¹ s⁻¹]	Binder
< 0.001	< 1e-07	206000	hz140-Hm10/hz182-L (antibody, V domains shown) VH: QVQLVQSGAEVKKPGASVKVSCKASGYKFTNYVMHWVRQAPGQRLEWMGYINPYNEGIKYNEKFTGRVTITRDTSASTAYMELSSLRSEDTAVYYCAREGDFYANYGRLGFAYWGQGTLVTVSS VL: DIQMTQSPSSLSASVGDRVTITCRASQDISNYLNWYQQKPGKAPKLLLYYTSRLHSGVPSRFSGSGSGTDYTLTISSLQPEDFATYFCQQGAGRPYTFGGGTKVEIK
< 0.001	< 1e-07	223000	hz140-Hm9/hz182-L (antibody, V domains shown) VH: QVQLVQSGAEVKKPGASVKVSCKASGYKFTNYVMHWVRQAPGQRLEWMGYINPYNDAIKYNEKFTGRVTITRDTSASTAYMELSSLRSEDTAVYYCAREGDFYANYGRLGFAYWGQGTLVTVSS VL: DIQMTQSPSSLSASVGDRVTITCRASQDISNYLNWYQQKPGKAPKLLLYYTSRLHSGVPSRFSGSGSGTDYTLTISSLQPEDFATYFCQQGAGRPYTFGGGTKVEIK
5.97	0.00171	286000	hz140-Hm4/hz182-L (antibody, V domains shown) VH: QVQLVQSGAEVKKPGASVKVSCKASGYKFTNYVMSWVRQAPGQRLEWMGYINPYNDGIKYNEKFTGRVTITRDTSASTAYMELSSLRSEDTAVYYCAREGDFYANYGRLGFAYWGQGTLVTVSS VL: DIQMTQSPSSLSASVGDRVTITCRASQDISNYLNWYQQKPGKAPKLLLYYTSRLHSGVPSRFSGSGSGTDYTLTISSLQPEDFATYFCQQGAGRPYTFGGGTKVEIK
1.71	0.000541	317000	hz140-Hm2/hz182-L (antibody, V domains shown) VH: QVQLVQSGAEVKKPGASVKVSCKASGYKFTSYVMHWVRQAPGQRLEWMGYINPYNDGIKYNEKFTGRVTITRDTSASTAYMELSSLRSEDTAVYYCAREGDFYANYGRLGFAYWGQGTLVTVSS VL: DIQMTQSPSSLSASVGDRVTITCRASQDISNYLNWYQQKPGKAPKLLLYYTSRLHSGVPSRFSGSGSGTDYTLTISSLQPEDFATYFCQQGAGRPYTFGGGTKVEIK
1.67	0.000542	325000	hz140-Hm1/hz182-L (antibody, V domains shown) VH: QVQLVQSGAEVKKPGASVKVSCKASGYTFTNYVMHWVRQAPGQRLEWMGYINPYNDGIKYNEKFTGRVTITRDTSASTAYMELSSLRSEDTAVYYCAREGDFYANYGRLGFAYWGQGTLVTVSS VL: DIQMTQSPSSLSASVGDRVTITCRASQDISNYLNWYQQKPGKAPKLLLYYTSRLHSGVPSRFSGSGSGTDYTLTISSLQPEDFATYFCQQGAGRPYTFGGGTKVEIK

biological target: T1, recombinant antigen of the …; assay: Fortebio BLI, recombinant CD47 extracellular region

Kd [nM]	koff [s⁻¹]	kon [M⁻¹ s⁻¹]	Binder
2.67	0.00071	266000	140Hm2/hz140L (Table 2) (antibody, V domains shown, also called hz140-Hm/hz140L) VH: QVQLVQSGAEVKKPGASVKVSCKASGYKFTNYAMHWVRQAPGQRLEWMGYINPYNDGIKYNEKFTGRVTITRDTSASTAYMELSSLRSEDTAVYYCAREGDFYANYGRLGFAYWGQGTLVTVSS VL: DIQMTQSPSSLSASVGDRVTITCRASQDITNYLNWYQQKPGKAPKLLIYYTSRLHSGVPSRFSGSGSGTDYTFTISSLQPEDIATYFCQQGDTFPRTFGGGTKVEIK
5.12	0.00103	201000	140Hm3/hz140L (Table 2) (antibody, V domains shown, also called hz140-Hm/hz140L) VH: QVQLVQSGAEVKKPGASVKVSCKASGYKFTNYVMSWVRQAPGQRLEWMGYINPYNDGIKYNEKFTGRVTITRDTSASTAYMELSSLRSEDTAVYYCAREGDFYANYGRLGFAYWGQGTLVTVSS VL: DIQMTQSPSSLSASVGDRVTITCRASQDITNYLNWYQQKPGKAPKLLIYYTSRLHSGVPSRFSGSGSGTDYTFTISSLQPEDIATYFCQQGDTFPRTFGGGTKVEIK
